Test results: patent US20080025968A1 (YEDA RESEARCH AND DEVELOPMENT, published 2008)

Key:
IKK2, endogenous = biological target: T1, IKK2, endogenous (human, UniProt O14920 1-756); assay: western blot of the p55 TNF receptor complex from Ramos cells after TNF (FIG. 5c)
T1 construct: mature; also called IKKβ
T1 sequence (looked up): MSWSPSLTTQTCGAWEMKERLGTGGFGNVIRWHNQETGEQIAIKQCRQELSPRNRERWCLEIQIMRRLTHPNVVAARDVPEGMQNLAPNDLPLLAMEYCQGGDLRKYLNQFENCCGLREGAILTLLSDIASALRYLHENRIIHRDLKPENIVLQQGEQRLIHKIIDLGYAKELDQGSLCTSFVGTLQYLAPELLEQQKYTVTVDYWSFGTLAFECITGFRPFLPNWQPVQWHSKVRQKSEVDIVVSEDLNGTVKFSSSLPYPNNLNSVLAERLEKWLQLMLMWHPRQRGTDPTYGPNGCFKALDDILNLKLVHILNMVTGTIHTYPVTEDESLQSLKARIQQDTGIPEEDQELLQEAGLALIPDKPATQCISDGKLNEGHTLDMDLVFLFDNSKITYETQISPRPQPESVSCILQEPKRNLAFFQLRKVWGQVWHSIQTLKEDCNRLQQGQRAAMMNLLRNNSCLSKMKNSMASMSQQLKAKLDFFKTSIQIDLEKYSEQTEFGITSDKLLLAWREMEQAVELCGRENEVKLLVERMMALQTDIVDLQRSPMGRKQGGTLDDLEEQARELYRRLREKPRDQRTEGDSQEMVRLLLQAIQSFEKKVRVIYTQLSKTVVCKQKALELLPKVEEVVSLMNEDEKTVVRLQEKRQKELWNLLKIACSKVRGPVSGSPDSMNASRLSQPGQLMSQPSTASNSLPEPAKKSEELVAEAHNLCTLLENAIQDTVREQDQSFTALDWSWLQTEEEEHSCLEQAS

IKK1, endogenous = biological target: T2, IKK1, endogenous (human, UniProt O15111 1-745); assay: as above
T2 construct: mature; also called IKKα
T2 sequence (looked up): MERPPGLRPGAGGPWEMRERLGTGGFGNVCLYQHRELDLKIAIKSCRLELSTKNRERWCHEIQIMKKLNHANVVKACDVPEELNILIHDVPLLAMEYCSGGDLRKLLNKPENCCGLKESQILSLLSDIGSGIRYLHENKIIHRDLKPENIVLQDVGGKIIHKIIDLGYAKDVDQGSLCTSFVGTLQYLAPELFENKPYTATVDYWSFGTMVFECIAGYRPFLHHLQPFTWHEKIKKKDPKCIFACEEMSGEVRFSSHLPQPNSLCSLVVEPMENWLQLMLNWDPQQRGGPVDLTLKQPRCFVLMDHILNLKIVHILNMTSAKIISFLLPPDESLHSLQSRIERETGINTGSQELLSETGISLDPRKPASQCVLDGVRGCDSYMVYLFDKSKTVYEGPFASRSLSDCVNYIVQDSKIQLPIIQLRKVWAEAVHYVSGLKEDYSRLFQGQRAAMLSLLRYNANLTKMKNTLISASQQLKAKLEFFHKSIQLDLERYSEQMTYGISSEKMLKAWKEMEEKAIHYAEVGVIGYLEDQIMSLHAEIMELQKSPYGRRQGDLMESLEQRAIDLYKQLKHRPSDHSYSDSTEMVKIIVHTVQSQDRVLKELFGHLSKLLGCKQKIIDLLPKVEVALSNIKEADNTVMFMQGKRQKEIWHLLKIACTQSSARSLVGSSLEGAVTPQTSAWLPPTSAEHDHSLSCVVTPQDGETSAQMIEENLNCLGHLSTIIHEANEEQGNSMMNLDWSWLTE

B1: p55 TNF receptor, endogenous in Ramos cells (receptor, human, UniProt P19438 30-455, looked up)
chain: LVPHLGDREKRDSVCPQGKYIHPQNNSICCTKCHKGTYLYNDCPGPGQDTDCRECESGSFTASENHLRHCLSCSKCRKEMGQVEISSCTVDRDTVCGCRKNQYRHYWSENLFQCFNCSLCLNGTVHLSCQEKQNTVCTCHAGFFLRENECVSCSNCKKSLECTKLCLPQIENVKGTEDSGTTVLLPLVIFFGLCLLSLLFIGLMYRYQRWKSKLYSIVCGKSTPEKEGELEGTTTKPLAPNPSFSPTPGFTPTLGFSPVPSSTFTSSSTYTPGDCPNFAAPRREVAPPYQGADPILATALASDPIPNPLQKWEDSAHKPQSLDTDDPATLYAVVENVPPLRWKEFVRRLGLSDHEIDRLELQNGRCLREAQYSMLATWRRRTPRREATLELLGRVLRDMDLLGCLEDIEEALCGPAALPPAPSLLR
notes: whole, on cells; TNF-receptor complex precipitated as described by Zhang et al., 2000
binding result (IKK2, endogenous): binds | binding result (IKK1, endogenous): binds
